From patent US20110091449A1 (University of Pennsylvania, published 2011)

Tests used:
[1] = target: T1, recombinant human desmoglein 3 (Dsg3) on ELISA plates (MBL) (human, UniProt P32926 50-615, limits assumed); test: Dsg3 ELISA (MBL), soluble scFv, anti-HA detection
T1 construct: Commercial Dsg3 ELISA plate (MBL)
T1 sequence (looked up): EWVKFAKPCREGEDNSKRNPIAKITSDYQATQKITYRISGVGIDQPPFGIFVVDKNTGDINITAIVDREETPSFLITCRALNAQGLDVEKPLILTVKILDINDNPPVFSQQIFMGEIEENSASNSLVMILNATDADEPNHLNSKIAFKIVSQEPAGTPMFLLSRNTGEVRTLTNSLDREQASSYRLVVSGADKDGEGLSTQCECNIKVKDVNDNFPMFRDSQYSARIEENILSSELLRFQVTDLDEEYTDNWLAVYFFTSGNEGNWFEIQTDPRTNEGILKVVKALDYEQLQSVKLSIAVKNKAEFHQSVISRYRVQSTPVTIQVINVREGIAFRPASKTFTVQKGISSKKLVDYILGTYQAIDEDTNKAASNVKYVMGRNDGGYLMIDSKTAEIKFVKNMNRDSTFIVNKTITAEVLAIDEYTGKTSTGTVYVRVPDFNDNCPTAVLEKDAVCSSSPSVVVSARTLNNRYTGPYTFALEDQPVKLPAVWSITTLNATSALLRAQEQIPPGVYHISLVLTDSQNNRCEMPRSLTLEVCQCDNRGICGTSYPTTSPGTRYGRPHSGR

[2] = target: T2, baculovirus-produced recombinant human Dsg4-EHis (human, UniProt Q86SJ6 50-631); test: immunoprecipitation of Dsg4-EHis with scFv, anti-E tag immunoblot
T2 construct: not shown: E-tag and histidine tag
T2 sequence (looked up): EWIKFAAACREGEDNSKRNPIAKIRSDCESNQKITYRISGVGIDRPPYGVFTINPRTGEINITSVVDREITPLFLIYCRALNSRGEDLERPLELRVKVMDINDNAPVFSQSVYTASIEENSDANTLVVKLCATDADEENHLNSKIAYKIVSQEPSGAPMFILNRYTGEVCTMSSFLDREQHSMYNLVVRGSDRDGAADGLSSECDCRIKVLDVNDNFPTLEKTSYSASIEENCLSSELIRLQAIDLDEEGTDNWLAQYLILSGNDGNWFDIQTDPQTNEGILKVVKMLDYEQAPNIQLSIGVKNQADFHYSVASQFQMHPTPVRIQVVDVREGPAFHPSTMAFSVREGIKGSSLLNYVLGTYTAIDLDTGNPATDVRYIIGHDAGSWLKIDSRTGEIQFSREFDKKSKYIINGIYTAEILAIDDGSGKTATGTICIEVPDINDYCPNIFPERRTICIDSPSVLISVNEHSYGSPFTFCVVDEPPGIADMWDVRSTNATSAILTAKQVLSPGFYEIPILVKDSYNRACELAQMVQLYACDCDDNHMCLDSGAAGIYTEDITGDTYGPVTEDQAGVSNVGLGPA
Method: To determine whether anti-Dsg1 scFvs also bind Dsg4, baculovirus-produced recombinant human Dsg4-EHis and human Dsg1-EHis (“EHis” tag defined above) was used (Nagasaka et al., 2004 J. Clin. Invest 114:1484-1492.). Baculovirus-infected insect cell culture supernatants containing recombinant molecules were incubated with scFvs for 30 minutes and then immunoprecipitated with anti-HA agarose (Sigma-Aldrich) at 4° C. for 2 hours with gentle rotation. After washing with TBS-Ca, the immunoprecipitates were resuspended in Laemmli sample buffer, separated by SDS-PAGE, and transferred to nitrocellulose membranes (Bio-Rad Labratories). Membranes were probed with HRP-conjugated anti-E-tag antibody (1:2000 dilution, GE Healthcare Bio-Sciences).
Some pemphigus sera bind Dsg4, and this binding was due to antibodies against Dsg1 that cross react with Dsg4. To determine whether any of the anti-Dsg1 monoclonal antibodies crossreact with Dsg4, scFvs were used to immunoprecipitate recombinant Dsg4 containing a carboxy-terminal E-epitope tag, then identified its presence on an immunoblot stained with anti-E tag antibodies.

B1: 1-18/L12 (scFv)
scFv: ELQMTQSPSTLSASVGDRVTITCRASQGISNWLAWYQQKPGKAPKLLIHKASSLESGVPSRFSGSGSGTEFTLTISSLQPDDFATYYCQQYYTYPLTFGGGTKVEIKGGSSRSSSSGGGGSGGGGQVQLVQSGAEVKKPGASVKVSCKASGYTFTNYGITWVRQAPGQGLEWMGWISVYNGDTKYAQKLQGRVTMTTDTPTNTVYMELRSLRSDDTAVYYCARGYGSGNWDYWGQGTLVTVSS
notes: VH1-18, VDJ1, VL gene L12; also called PF1-2-6
- binding result [1]: no binding
- binding result [2]: no binding

B2: 3-30/3h (scFv)
scFv: ELVLTQPPSVPVAPGQTANISCGGNNIGRQTVHWYQQKPGQAPVLVVFDDSDRPAGIPERFSGSNSGNTATLTISRVEAGDEADYYCQVWDSSSDHVVFGGGTQLTVLGGGSSRSSSSGGGGSGGGGQVQLVQSGGGVVQSGRSLRLSCAASGFTFSDYAMHWVRQAPGKGLEWVAVISHGGTKKYTGDSVKGRFIISRDNSKNTVFLQMNSLRVEDTAVYYCARDRVEGYVWGGTFDHWGQGTPVTVSS
notes: VH3-30, VDJ12, VL gene 3h; pathogenic; also called PF1-8-15; VH3-30 clone
- binding result [1]: no binding
- binding result [2]: no binding
